From article PMC6650433, “Evolution of metazoan oxygen-sensing involved a conserved divergence of VHL affinity for HIF1α and HIF2α” (Nature Communications, 2019)
Where a chain is given by its changes, count along the chain named. Names may count otherwise. Values belong to the molecule of their own block, whether it stands above or below them. [ ]: non-standard residue; d: D form. The star is where a group is joined. Biotin = O=C1N[C@H]2[C@H](CS[C@H]2CCCCC(=O)*)N1; Hyp = O=C(O)[C@@H]1C[C@@H](O)CN1

What was measured:
[1] = tested on: HA-VHL30; experiment: In vitro pVHL-HIFα binding (pulldown) assay, VHL WT; set-up: species or system human; conditions: 1.2 μg biotinylated peptide on streptavidin agarose beads, IVTT HA-VHL30, EBC buffer, two hours at 4 °C, anti-HA immunoblot, qualitative
Procedure: The in vitro pVHL-HIFα binding assay was performed as previously described. HA-VHL30 was expressed in an IVTT rabbit reticulocyte lysate system (Promega, Cat. No. L1170) and incubated with 1.2 μg of biotinylated HIFαOH peptide immobilized on streptavidin agarose beads in 500 μL of EBC buffer (50 mM Tris-HCl pH 8.0, 120 mM NaCl, 0.5% (v/v) NP-40) for two hours at 4 °C. To perform a competition binding assay, 1.8 μg of biotinylated HIFαOH peptide immobilized on streptavidin agarose beads competed with 1 μg of acetylated HIFαOH peptide. Following incubation, beads were washed 4x with NETN buffer (20 mM Tris-HCl pH 8.0, 100 mM NaCl, 1 mM EDTA, 0.5% (v/v) NP-40). Biotinylated peptide was pulled down via streptavidin agarose beads and protein was eluted by boiling beads in sample buffer. Protein levels of HA-VHL30 were determined by immunoblotting.

[2] = target: T1, VHL-elongin B-elongin C (VBC) complex (Homo sapiens, UniProt P40337+Q15369+Q15370); experiment: Biolayer interferometry, VBC WT binding to immobilized HIFα peptide; conditions: VHL/HIFα binding experiments, Fig. 2b (pulldown) and Fig. 2d (BLI), in words
T1 construct: made in house
T1 sequence (P40337 54-213 limits assumed): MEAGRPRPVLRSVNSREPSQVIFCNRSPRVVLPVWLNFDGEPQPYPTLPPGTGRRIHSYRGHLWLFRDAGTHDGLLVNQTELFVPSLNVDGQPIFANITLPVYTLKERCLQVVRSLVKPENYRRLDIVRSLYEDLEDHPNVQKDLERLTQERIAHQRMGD
T1 sequence (Q15370 whole entry partner): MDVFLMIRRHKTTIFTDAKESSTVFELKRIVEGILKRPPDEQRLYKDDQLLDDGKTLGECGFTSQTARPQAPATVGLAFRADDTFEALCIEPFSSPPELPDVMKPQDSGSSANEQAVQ
T1 sequence (Q15369 17-112 partner limits assumed): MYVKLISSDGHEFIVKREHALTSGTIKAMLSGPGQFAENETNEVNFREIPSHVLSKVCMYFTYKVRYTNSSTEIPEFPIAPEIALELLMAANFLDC
Procedure: The binding affinities of VBC to hydroxylated HIFα peptide was measured by biolayer interferometry using the BLItz system (Pall ForteBio). A 50 μg/mL solution of biotinylated HIFα peptide was prepared in kinetics buffer (20 mM HEPES pH 7.4, 200 mM NaCl, 1 mM DTT, 0.02% (v/v) Tween-20, and 0.5% (w/v) BSA) and immobilized onto streptavidin (SA)-coated biolayer interferometry (BLI) biosensors (Pall ForteBio, Cat. No. 18–5019) over 120 s. Multiple concentrations of purified VBC complex were diluted in kinetics buffer and allowed to associate with immobilized peptide over 120 s. Subsequently, the SA-BLI probe was immersed into kinetics buffer for 120 s to allow for dissociation. Both protein and buffer were chilled on ice immediately before use. The data were analyzed, step corrected, reference corrected, and fit to a global 1:1 binding model. Kd, ka, and kd were calculated using the BLItz Pro software. All measurements were performed in triplicate with independently purified recombinant protein.

[3] = target: VHL-elongin B-elongin C (VBC) complex, wild type, P40337;Q15370;Q15369; experiment: biolayer interferometry (BLI); conditions: chain shown with the change;, read off a plot
[4] = tested on: HA-VHL30; experiment: In vitro hydroxylation and co-immunoprecipitation of HIFα ODD with VHL WT; format: binding, human; conditions: IVTT 3xFLAG-HIFα ODD hydroxylated with HIS6-PHD2 (181–426) for 1 h, anti-FLAG IP, anti-HA immunoblot, compared with the WT ODD, qualitative
Procedure: (§1) 3xFLAG-HIFα ODD was expressed via the rabbit reticulocyte lysate system. HIFα ODD was incubated with 15 μg/μL HIS6-PHD2 (181–426) in 200 μL of 40 mM HEPES pH 7.4, 80 mM KCl, 5 mM a-ketoglutarate, 2 mM ascorbic acid, 100 μM FeCl2 tetrahydrate solution at 30 °C for 1 h. Following hydroxylation, 3xFLAG-HIFα was incubated with IVTT VHL30 in 500 μL of wash buffer (40 mM HEPES pH 7.4, 80 mM KCl, 0.05% (v/v) Tween-20, 250 μM EDTA, 1 mM DTT) supplemented with protease inhibitors for 2 h at 4 °C. Following binding, 3xFLAG-HIFα ODD was immunoprecipitated with anti-FLAG antibody immobilized on protein A beads. Protein was eluted by boiling beads in sample buffer. Protein levels of HA-VHL30 were determined by immunoblotting.

[5] = tested on: VHL F91Y; experiment: In vitro hydroxylation and co-immunoprecipitation of HIFα ODD with VHL F91Y; format: binding, human; conditions: IVTT 3xFLAG-HIF1α ODD hydroxylated with HIS6-PHD2, anti-FLAG IP, anti-HA immunoblot, qualitative
Procedure: as §1

Molecule: Bio-HIF1αOH(M561A): hydroxylated HIF1α peptide, Met561 substituted with alanine (Biotin-DLDLEALA[Hyp]YIPMDDDFQ-NH2; SMILES CC[C@H](C)[C@H](NC(=O)[C@H](Cc1ccc(O)cc1)NC(=O)[C@@H]1C[C@@H](O)CN1C(=O)[C@H](C)NC(=O)[C@H](CC(C)C)NC(=O)[C@H](C)NC(=O)[C@H](CCC(=O)O)NC(=O)[C@H](CC(C)C)NC(=O)[C@H](CC(=O)O)NC(=O)[C@H](CC(C)C)NC(=O)[C@H](CC(=O)O)NC(=O)CCCC[C@@H]1SC[C@@H]2NC(=O)N[C@@H]21)C(=O)N1CCC[C@H]1C(=O)N[C@@H](CCSC)C(=O)N[C@@H](CC(=O)O)C(=O)N[C@@H](CC(=O)O)C(=O)N[C@@H](CC(=O)O)C(=O)N[C@@H](Cc1ccccc1)C(=O)N[C@@H](CCC(N)=O)C(N)=O)
- levels of HA-VHL pulled down by immobilized biotinylated HIFαOH peptide (affinity for VHL) [1]: decreased affinity for pVHL

Molecule: HIF1αOH(D570delinsGE): hydroxylated HIF1α peptide with insertion of Glyn+6 to mimic HIF2α (Biotin-DLDLEMLA[Hyp]YIPMDGDDFQ-NH2; SMILES CC[C@H](C)[C@H](NC(=O)[C@H](Cc1ccc(O)cc1)NC(=O)[C@@H]1C[C@@H](O)CN1C(=O)[C@H](C)NC(=O)[C@H](CC(C)C)NC(=O)[C@H](CCSC)NC(=O)[C@H](CCC(=O)O)NC(=O)[C@H](CC(C)C)NC(=O)[C@H](CC(=O)O)NC(=O)[C@H](CC(C)C)NC(=O)[C@H](CC(=O)O)NC(=O)CCCC[C@@H]1SC[C@@H]2NC(=O)N[C@@H]21)C(=O)N1CCC[C@H]1C(=O)N[C@@H](CCSC)C(=O)N[C@@H](CC(=O)O)C(=O)NCC(=O)N[C@@H](CC(=O)O)C(=O)N[C@@H](CC(=O)O)C(=O)N[C@@H](Cc1ccccc1)C(=O)N[C@@H](CCC(N)=O)C(N)=O)
- VHL/HIFα complex stability [2]: does not overtly modulate complex stability

Molecule: HIF2α T528M: hydroxylated HIF2α peptide with T528M substitution (Biotin-ELDLEMLA[Hyp]YIPMDGEDFQ-NH2; SMILES CC[C@H](C)[C@H](NC(=O)[C@H](Cc1ccc(O)cc1)NC(=O)[C@@H]1C[C@@H](O)CN1C(=O)[C@H](C)NC(=O)[C@H](CC(C)C)NC(=O)[C@H](CCSC)NC(=O)[C@H](CCC(=O)O)NC(=O)[C@H](CC(C)C)NC(=O)[C@H](CC(=O)O)NC(=O)[C@H](CC(C)C)NC(=O)[C@H](CCC(=O)O)NC(=O)CCCC[C@@H]1SC[C@@H]2NC(=O)N[C@@H]21)C(=O)N1CCC[C@H]1C(=O)N[C@@H](CCSC)C(=O)N[C@@H](CC(=O)O)C(=O)NCC(=O)N[C@@H](CCC(=O)O)C(=O)N[C@@H](CC(=O)O)C(=O)N[C@@H](Cc1ccccc1)C(=O)N[C@@H](CCC(N)=O)C(N)=O)
- levels of HA-VHL pulled down by immobilized biotinylated HIFαOH peptide (affinity for VHL) [1]: increased affinity for VHL

Molecule: HIF2αOH(∆G537): hydroxylated HIF2α peptide with deletion of G537 (Biotin-ELDLETLA[Hyp]YIPMDEDFQ-NH2; SMILES CC[C@H](C)[C@H](NC(=O)[C@H](Cc1ccc(O)cc1)NC(=O)[C@@H]1C[C@@H](O)CN1C(=O)[C@H](C)NC(=O)[C@H](CC(C)C)NC(=O)[C@@H](NC(=O)[C@H](CCC(=O)O)NC(=O)[C@H](CC(C)C)NC(=O)[C@H](CC(=O)O)NC(=O)[C@H](CC(C)C)NC(=O)[C@H](CCC(=O)O)NC(=O)CCCC[C@@H]1SC[C@@H]2NC(=O)N[C@@H]21)[C@@H](C)O)C(=O)N1CCC[C@H]1C(=O)N[C@@H](CCSC)C(=O)N[C@@H](CC(=O)O)C(=O)N[C@@H](CCC(=O)O)C(=O)N[C@@H](CC(=O)O)C(=O)N[C@@H](Cc1ccccc1)C(=O)N[C@@H](CCC(N)=O)C(N)=O)
- levels of HA-VHL pulled down by immobilized biotinylated HIFαOH peptide (affinity for VHL) [1]: minor decrease in affinity for VHL

- levels of HA-VHL pulled down by immobilized biotinylated HIFαOH peptide (affinity for VHL) [1]: further decrease in VHL affinity
Molecule: MetO2: hydroxylated HIF1α peptide, Met561 completely oxidized to methionine sulfone (MetO2)

- levels of HA-VHL pulled down by immobilized biotinylated HIFαOH peptide (affinity for VHL) [1]: did not affect the affinity
Molecule: NLE-substituted HIF1α: hydroxylated HIF1α peptide, Met561 substituted with norleucine

- koff ([3]; parent: est. 0.0075 s-1): 0.011 s⁻¹
- koff ([3]; parent: est. 0.0078): 0.011 s⁻¹
Molecule: ELDLETLAPYIPMDEDFQ [hydroxylated HIF2α peptide (523–541), biotinylated G537del]

B1: HIF1α ODD M561T: IVTT 3xFLAG-HIF1α ODD (387–581) with M561T substitution (protein)
chain: FDKLKKEPDALTLLAPAAGDTIISLDFGSNDTETDDQQLEEVPLYNDVMLPSPNEKLQNINLAMSPLPTAETPKPLRSSADPALNQEVALKLEPNPESLELSFTMPQIQDQTPSPSDGSTRQSSPEPNSPSEYCFYVDSDMVNEFKLELVEKLFAEDTEAKNPFSTQDTDLDLETLAPYIPMDDDFQLRSFDQLS
modifications: hydroxylated in vitro by HIS6-PHD2 (181–426) for one hour before the binding; left off: 3xFLAG, end not stated, kept
notes: IVTT 3xFLAG-HIF1α ODD (387–581) with M561T substitution
- affinity of HIFα ODD protein for VHL (HA-VHL co-immunoprecipitated) [4]: decreased affinity
- HIFα ODD bound by VHL F91Y, compared with VHL WT [5]: bound less

B2: HIF1αODD WT: IVTT 3xFLAG-tagged HIF1α oxygen-dependent degradation domain (387–581), wild type (protein)
chain: B1 chain with T175M
modifications: hydroxylated in vitro by HIS6-PHD2 (181–426) for one hour before the binding; left off: 3xFLAG, end not stated, kept
notes: IVTT 3xFLAG-tagged HIF1α oxygen-dependent degradation domain (387–581), wild type
- HIFα ODD bound by VHL F91Y, compared with VHL WT [5]: bound less

B3: HIF2α ODD T528M: IVTT 3xFLAG-HIF2α(390–554) ODD protein with T528M substitution (protein, UniProt Q99814 390-554, looked up, fragment T528M)
chain: FTKLKEEPEELAQLAPTPGDAIISLDFGNQNFEESSAYGKAILPPSQPWATELRSHSTQSEAGSLPAFTVPQAAAPGSTTPSATSSSSSCSTPNSPEDYYTSLDNDLKIEVIEKLFAMDTEAKDQCSTQTDFNELDLEMLAPYIPMDGEDFQLSPICPEERLLAE
modifications: ODD 3xFLAG tag
notes: IVTT 3xFLAG-HIF2α(390–554) ODD protein with T528M substitution
- affinity of HIFα ODD protein for VHL (HA-VHL co-immunoprecipitated) [4]: increased the affinity
